Measured values as given in PMC12955206.

Molecular target: myeloperoxidase (MPO) (human, UniProt P05164 49-745)
Assay: fluorescence strand displacement

myeloperoxidase (MPO), sequence (P05164 49-745): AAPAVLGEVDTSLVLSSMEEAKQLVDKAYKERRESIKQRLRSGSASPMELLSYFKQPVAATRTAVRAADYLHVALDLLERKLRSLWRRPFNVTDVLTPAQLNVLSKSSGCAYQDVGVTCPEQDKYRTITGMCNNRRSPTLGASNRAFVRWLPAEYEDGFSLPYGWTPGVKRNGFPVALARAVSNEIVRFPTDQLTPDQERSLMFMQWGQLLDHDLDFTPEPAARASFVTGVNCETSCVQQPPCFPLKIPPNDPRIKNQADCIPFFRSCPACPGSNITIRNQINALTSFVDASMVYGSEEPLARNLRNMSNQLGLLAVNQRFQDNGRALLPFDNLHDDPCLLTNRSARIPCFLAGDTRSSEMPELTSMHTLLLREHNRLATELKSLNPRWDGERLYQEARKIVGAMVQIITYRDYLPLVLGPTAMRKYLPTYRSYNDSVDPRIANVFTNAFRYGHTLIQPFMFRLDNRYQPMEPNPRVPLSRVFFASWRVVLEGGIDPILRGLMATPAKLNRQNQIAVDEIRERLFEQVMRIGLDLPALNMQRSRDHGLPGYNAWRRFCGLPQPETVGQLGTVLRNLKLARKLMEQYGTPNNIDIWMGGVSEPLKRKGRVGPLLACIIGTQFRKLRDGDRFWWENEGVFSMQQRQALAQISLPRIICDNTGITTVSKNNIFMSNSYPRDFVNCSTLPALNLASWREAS

B1: AptCy3/TBHQ2 duplex (MPO aptamer with trigger strand) (mixed)
DNA 1: CACCTAATACGACTCACTATAGCGGATCCGAAACGCTATTCGGATGGGGTTCCAGATACTAGAAAGAGCAA
DNA 2: CATCCGAATAGCGTTTCGGATC
modifications: internal Cy3-dT at position 45 of the aptamer (Table S1)
- binding result: binds
